Measured values published in the nanobody polyreactivity screen of Harvey et al. (2022).

Assay: yeast display, Sf9 membrane polyspecificity reagent, FACS + sequencing; frameworks hold sequencing errors
Procedure, shortened: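 Sorting gates, low and high (top ~1%), were placed on anti-HA fluorescence to track expression and on streptavidin fluorescence to track reagent binding. A clone's polyreactivity label is taken from the gate it came out of. The reagent was 10% biotinylated, detergent-solubilized Sf9 membrane, applied for 1 hour at 4 °C to galactose-induced yeast display cells.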

Sequence | polyreactivity (PSR sort gate)
QVHLVESGGGLVQAGGSLRLSCAASGFIFNVYAMGWYRQAPGKERELVAAISFSGTSTYYADSVKGRFTISRDNAKNTVYLQMNSLKPEDTAVYYCAARYWSRDQWPRSLYYWGQGTQVTVSS | high polyreactivity
QVQLVESGGGLLQAGGSLRLSCAASGRTFKSYTMGWYRQAPGKERELVAAIRASGGITYYADSVKGRFTISRDNAKNTVYLQMNSLKPEDTAVYYCAARPRTRYDYWGQGTQVTVSS | high polyreactivity
QVQLVESGGGLVQAGGSLRLSCAASGFIFSRNALGWYRQAPGKERELVAVISTRGGSTYYADSVKGRFTISRDNAKNTVYLQMNSLKPEDTAVYYCAARRTRGYEYWGQGTQVTVSS | high polyreactivity
QVQLVESGGGLVQAGGSLRLSCAASGFIFQEYAMGWYRQAPGKERELVAAITSGGSTNYADSVKGRFTISRDNAKNTVYLQMNSLKPADTAVYYCNVDSPDYYYDYDYWGQGTQVTVSS | low polyreactivity
QVQLVESAGGLVQAGGSLRLSCAASGSISAGNAMGWNRQAPGKERELVAAISGSGGSTYYADSVKGRFTISRYNAKNSVDLQMKSLKPEDTAVYYCAARGGYRLRYIPYVRYDYWGEGTQVTVSS | high polyreactivity
QVQLVESGGGLVQAGGSHRLSCAASGSTFRVYAMGGYRQAPGKERELVARISITGGTTRYADSVKGRFTISRDNAKNTVYLQMNSLKPEDTAVYYCNADYDWYYWYLYKYPFDYWGQGTQVTVSS | low polyreactivity
QVQLVESGGGLVQAGGSLRLRCAASGSTFGGYAMGWYRQAPGKERELVAAISRRGGRTYYADSVKGRFRISRDNAKNTVYLQRNSLKPEDTAVYYSAADWSYVRYYYWGQGTQVTVSS | high polyreactivity
QVQLVESGGGLVKAAGSLRLSSAASGSIFSYNAMGWNRQAPGKERELVAAITFTAGNTYYADSVKGRFTISRDNAKNTVYLQMNILKPEDTAVYYCAATIQSYREDDNWGQGTQVTVSS | low polyreactivity
QVQLVESGGGLVQAGGSLRLSCAASGSTFGYYAMGWYRQAPGKERELVAAISWSGGSTYYADSVKGRFTISRDNAKNTVYLQMNSLKPEDTAVYYCNKVRGKTYYGEGDYWGQGTQVTVSS | high polyreactivity
QVQLVESGGGLVQAGGSLRLSCAASGRIFGLNGMGWSRQAPGKERELVARISSVGSTYSADSVKGRFTISRDNAKNTVDLQKNSLTPEDTSVYYCNRRRSRYLPTPDRIVEYDYWGQGTQVTVSS | low polyreactivity
QVQLVESGGGLVQAGGSLRLSCAASGITLPVYGMGWYRQAPGKERELVAVIDIVGITNYADSVKGRFTISRDNAKNTVYLQMNSLKPEDTAVYYCAKRYVDLADGGEYYYWGQGTQVTVSS | low polyreactivity
QVQLVESWGGLVQAGGSLRLSCAASGLTFVKNAMGWYRQAPGKERELVAAITRTGGSTYYADSVKVRFTISRDNAKNTFYLQMNSLKPEDPAVYYCASRTPSPRRTKTAVDYWGQGTQVTVSS | high polyreactivity
QVQLVDSGGGLVQAGGSLRLSCAASGFNFDRNTMGWYRKAPGKERELVATISSTGTTNYADSVKGRFTISRDNAKNTVYLQMNSLKPEDTAVYYCNAYPRWRYVSYYRSYRYDYWGQGTQVTVSS | high polyreactivity
QVQLQGSGGGLVQAGGSLRLSCAASGYIFQNVPMGWNRQAPCKERELVAGIDNGTSTNYADSVNGRFTISRDNAKNTVYLQMNSLKPEDTAVYYCAAAGQADDTLGYWGQGTQVTVSS | low polyreactivity
QFQLVESGGGLVQAGGSLRLSCAASGIIFGAYVMGWYRQAPGKERELVAVISWSSTSTYYADSVKGRFTISRDNAKNTVYLQMNSLKPEDTAVYYCNARYLRRGDYWGQGTQVTVSS | low polyreactivity
QVQLVESGGGLVQAGGSLRISCAASGRTFKSYAMGWYRQAPGKERELVAAISSSGGRTFYADSVKGRFTISRDNAKNTVYLQMNSLKPEDTAVYYCNARYCYRYGGYKPVGGYYWGQGTQVTVSS | high polyreactivity
QVQLVESGGGLVQAGGSLRLSCAASGRTFSVYAMGSSRHAPGKERELVAAITESGGSTYYADSVKGRFTISRDNAKITVYLQMNSLKPEDTAVYYCNAGPYYWYVYWGQGTQVTVSS | low polyreactivity
QVQLVESGGGLVQAGGSLSLICAASGSTFNLYPMGGYRKAPGKERELVAAISRGGSTNYADSVKGRFTISRDNAKNTVYLQMNSLIPEDTAVYYCAARSWYDRYPYYSWGQGTQLTVSS | high polyreactivity
QVQLVESGGGLVQAGGSLRLSCAASGFTFTRYAMGWYRQAPGKERELVAAIRWSGGRTYYADSVKGRFTISRDNAKNTVYLQMNSLKPEDTAVYYCYAVFYDPRREYDYWGQGTQVTVSS | high polyreactivity
QVQLVESGGGLVQAGGSLRLSCAASGRIFYRNAMGWYRQAPGKERELVAAITWRGGSTYYADSVKGRFTISRDNAKNTVYLQMNSLKPEDTAVYYCNTRYGRIHWKANWPEYGYWGQGTQVTVSS | low polyreactivity

Sequence | polyreactivity (PSR sort gate)
QVQLEESGGGLVQAGGSLRLSCAASGLTFATYAIGWYRQAPGKERELVAAISRSGGRTYFADSVKGRFTISRDNAKNTVYLQMNSLKPEDTAVYYCNADFYASDDYWGQGTQVTVSS | high polyreactivity
QVQLVESGGGLVQAGGSLRLSCAASGSIFYFNTMAWYRQAPGKERELVAVISRRGGSTYYADSVKRRFTISRDNAKNTVYLQMNSLKPEDTAVYYCNAEVFDLWRSFLSPYEYWGQGTQVTVSS | low polyreactivity
QVQLVESGGGLVQAGGSLRLSCASSGRIFHVYAMGWYRQAPGKERELVADITWSGGSTYYADSVKGRFTISRDNAKNTVYLQMNSLKPEDTAVYYCAASVLYGRHYSYGYWGQGTQVTVSS | high polyreactivity
QVQLLESGGGLVQAGGSLRLSCAASGSTFYSYAMGGYRQAPGKERELVAAISSSSGSTYYADSVKGRFTISRDNANNSVYLQMNSLKPEDTAVYYCNRGRRYSHKYDYWGQGTQVTVSS | high polyreactivity
QVQLVESGGGLVQAGGSLRLSCAASGITFSVYAMGWYRQAPRKERELVASISSGGTSTYYADSVKGRFTISRDNAKNTVYLQMNSLKPEDTPVYYCAAYSYYTRDPYSYDYWGQGTQVTVSS | low polyreactivity
QVQLVESGGGLVQAGGSLRLSCAASGRILFRYGMGWYRQAPGKERELVARISWSGGNTHYADSVKGRFTISRDNAKNTVYLQMNSLKPEDTAVYYCNAYYTYWYPRYDYWGQGTQVTVSS | low polyreactivity
QVQLVESGGGLVQAGGSLRLSCAASGSIFGDYAMGWYRQAPGKEREFVAGITRRGGRTYYADSVKGRFTISRDNAKNTVYLQMNSLKPEDTAVYYCNAVYSSSLRSKYDYWGQGTQVTVSS | high polyreactivity
QVQLVESGGGLVQAGGSLRLSCAASGRIFGYYGRGWYRQAPGKERELVARISGRGGSTYYADSVKGRFTLSRDNAKNTVYLQINSLKPEDTAVYYCNVVFSFWQYYAYDQGDYWGQGTQVTVSS | low polyreactivity
QVQLVESGGGLVQAGGSLRLSCAASGFTFAVYTMGWYRQAPGKERELVAAITGSGGRTYYADSVKGRFTISRDNAKNTVYLQMNSLKPEDTAVYYCNAVQRSSRQTFEYCGQGTQVTVSS | low polyreactivity
QVQLEESGGGLVQAGGSLRLSCAASGSTFGRNTLGSYRPAPGKERELVAVISRRGGITTYADSVKGRFTISRENAKNTVYLQMNSLKPVDTAVYYCNAVSRVYNKGQYGYWGQGTQVSVSS | high polyreactivity
QVQLVESGGGLVQAGGSLRLSCAASGRIYPGYTMGWYRQAPGKERELVAGISRSGGRTYYADSVKGRFTISRDNAKNTVYLQMNSLKPEDTAVYYCAADGYPGRRYTGMDYWGQGTQVTVSS | high polyreactivity
QVQLVESGGGLVQAGGSLRLSCAASGSTFPYYAMGWYRQAPGKERELVAAISRGDSTNYADSVKGRFTISRDNAKNTVYLQMNSLKPEDTAVYYCAARLQYRRTSVKYYYWGQGTQVTVSS | high polyreactivity
QVQLVESGGGLVQAGGSLRLSCAASGNIFHVNAMGWYRQAPGKERELVAGITWSGGSTYYADSVKGRFTISRDNAKNTVYLQMNSLKPEDTAVYYCAATGWYFGYGRYGYWVQGTQVTVSS | high polyreactivity
QVQLVESGGGLVQAGGSLRLSCAASGSTFFRYTMGWYRQAPGKERELVAAISWSGGSTYYADSVKGRFTISRDNAKNTVYLQMNSLKPEDTAVYYCAAVYEWDAVKWVDVDMDYWGQGTQVTVSS | low polyreactivity
QVQLVESGGGLVQAGGSLRLSCAASGFTFQYYAMGWYRQAPGKERELVAAISWSGGRTYYADSVKGRFTISRDNAKNSVYLQMNSLKPVDTAVYYCAAQWYKWAYNNTLLRYYYWGQGTQVTVSS | high polyreactivity
QVQLVESGGGVVQAGGSLRLSCAASGITLAWYAMGWSRQAPGKERELVAAINSGGSTYYADSVKGRFTISRDTAKNTVYLQMNSLKPEDTAVYYCNTDDDSSSTGYYSWGQGTQVTVSS | low polyreactivity
QVQLVESGGGLVQAGGSLRLSCAASGRIVGLYAKGWYRQAPGKERELVATITRRAGSTYYADSVKGRFTISRDYAKNTVYLLMNSLKPEDTAVYYCAASALRFNSRFSHWYNYWGQGTQVTVSS | high polyreactivity
QVQLVESGGGLVQAGGSLRLSCAASGSTFIVNAMGWYRQAPGKERELVAAISRGGSTYYADSVKGRFTISRDNAKNTVYLQMNSLKPEHTAVYYCAARIWRTRRYDYWGQGTQVTVSS | high polyreactivity
QVQLVVSGGGLVQAGGSLRLSCAASGITFFPYAMGWYRQAPGKERLLVASISDRGGTNYADSVKGRFTISRDNAKNTVYLQMNSLKPEDTAVYYSASDASTYAYYGGDYWGQGTQVTVSS | low polyreactivity
QVQLVESVGGLVQEGGSLRLSCAASGFTFAFYAMGWYRQAPGKERELVAAMTRSGGSTYYADSVKGRFTISRDNAKNTVYLQMNSLKPEDTAVYYCAAVISRWGRSTYDYWGQGTQVTVSS | high polyreactivity
